Reference: the DeepSol protein solubility set

Experiment: soluble on expression in E. coli; label from the status in PepcDB or PDB records

Question: With “MKKLVLIGGGYGNMRVLHRLLPNQLPDDVSITLIDRNPYHCLKTEYYALAAGTISDHHIRVSFPEHPRLDVQYGDITSIDIVQKQVLFQDREPISYDDAIIGLGCEDKYHNVPGAPEFTYSIQTIDQSRETYQKLNNLSANATVAIVGAGLSGVELASELRESRDDLNIILFDRGNLILSSFPERLSKYVQKWFEEHGVRIINRANITKVEEGVVYNHDDPISADAIVWTAGIQPNKVVRDLDVEKDAQGRIVLTPHHNLPGDEHLYVVGDCASLPHAPSAQLAEAQAEQIVQILQKRWNGEALPESMPQFKLKGVLGSTRK” as the sequence, how does the “soluble on expression in E. coli” value read?
Answer: soluble

Question: For “MGSDKIHHHHHHMNRKVAIVTGTNSNLGLNIVFRLIETEDTNVRLTIVVTSRTLPRVQEVINQIKDFYNKSGRVEDLEIDFDYLLVDFTNMVSVLNAYYDINKKYRAINYLFVNAAQGIFDGIDWIGAVKEVFTNPLEAVTNPTYKIQLVGVKSKDDMGLIFQANVFGPYYFISKILPQLTRGKAYIVWISSIMSDPKYLSLNDIELLKTNASYEGSKRLVDLLHLATYKDLKKLGINQYVVQPGIFTSHSFSEYLNFFTYFGMLCLFYLARLLGSPWHNIDGYKAANAPVYVTRLANPNFEKQDVKYGSATSRDGMPYIKTQEIDPTGMSDVFAYIQKKKLEWDEKLKDQIVETRTPI”, which “soluble on expression in E. coli” value is on record?
Answer: not soluble

Question: For “MVEADPRFQEAIRLFNAQEWYAAHDVLEEIWHETADPERRCLQGLLQVAVAQLHLQRDNQRGATILFGEALGRLRRPGTPDLGLDLPALCHCVQGRLVQLQQDGDPESCTVPVLSPSP”, which “soluble on expression in E. coli” value is on record?
Answer: not soluble

Question: Which “soluble on expression in E. coli” value does the source give for “MGHHHHHHSHMTTPRSAPLYKLKSEDGQIFNVERGPMKFCAFINQKFIDHGVNDRNCERADPILVPFHSSIVQAVIEWLYHYQDNPLARRDSKIRYHDFSEWDKQFFNVESGVLFALLNASHALGVEDLMNMGCAAAAELIRGKSTEEIRKIYGIRSDEEQMEEALANGGEGTSAMTFTTDSD” here?
Answer: soluble

Question: For “MGSDKIHHHHHHMKPYIVAHMMSSLDGRSLTDGWHLDYASDLYETTAATFEADGWICGRVTMQEISHGKDYPAGLASGAVPRTDHFVERNADQYAISIDPQGRVAWKSNTALKSHVIEVLTEQVADDYLAYLQSIGVSYVFGGKTGIDLDKVVQTLARELGVKKLIVEGGSHVSGAFVNAGLVDEVSVLILPLVDGRSEHPSSFEVAMEKWQAPAYLKLTSVEKTDHDAVWLRYTKA”, which “soluble on expression in E. coli” value is on record?
Answer: not soluble

Question: With “SLQVNTPQTEETANQAKRHVADYTMDGISATALDERGVTKYRFTGVHMNHYEDDLTYDVTFPALRIYAPDRPQVTARADLGKMNGEGSIIDLYDNAKVVRAQGPDLRQDPLMTADSTYFQVLLNDDVVRTDKPVELHRGPSVMNANGLVFNNVTRQVQLLGNVRGRIEGLGAPKQ” as the sequence, how does the “soluble on expression in E. coli” value read?
Answer: soluble

Question: With “MTRTLASLFGPLQPMALAEDLAAPLLAMPIPEGAADPAAAARAPAAGPTVPDRFTVARGLAVVPVRGILTPNMAQYERWFGWATYHGLAETMAHLAASEDAAAIVLEIDSPGGLVCGIEAAAEAIAAAAAVKPVHALVSPLAASAAYWLASQASEIVMTPGAVAGSIGVALTAAAHVQPGANGAQIFEMSSRHARAKRPDASTEAGRAELQRSLDEAEAAFHAAVSAGRAIPAAELAARLSVTDDPQDGGATFRAPEAIRRGLADRIETRAAFYARLAARTAPKPRSPSRAFAARAAAAAALARS” as the sequence, how does the “soluble on expression in E. coli” value read?
Answer: not soluble

Question: For “MAGMNTENENRVEALEVRLAFQDELLDALNATVARQQKEIDLLQQQIRLLYQQFRNAQPDDAPGGSLRDDIPPHY”, which “soluble on expression in E. coli” value is on record?
Answer: not soluble

Question: With “MSLGSIITLYSPVGGIGKSTIAIEMAKKLSDSNKKVLYLNLEDLQSTLVFFECSTSKNMSDFLYFIKERDENFKEVLKDIVLKDEESGINYFAPVDSVLDIEDLKVDDVKFMLQKLIEVNMYNYIIIDLSSTFNINYKTIFEMSSKIIVPIGQDKLSSVKLQNFLKQLDNLENFSFIQNKYKDNLETIIPHVLLREKKPIIQKIYYDEALESVSSLIYLKNRASTFLRCIDELIMKLLEGHHHHHH” as the sequence, how does the “soluble on expression in E. coli” value read?
Answer: soluble

Question: With “MNSKCHCVILNDGNFIPVLGFGTALPLECPKSKAKELTKIAIDAGFHHFDSASVYNTEDHVGEAIRSKIADGTVRREDIFYTSKVWCTSLHPELVRASLERSLQKLQFDYVDLYLIHYPMALKPGEENFPVDEHGKLIFDRVDLCATWEAMEKCKDAGLTKSIGVSNFNYRQLEMILNKPGLKYKPVCNQVECHPYLNQMKLLDFCKSKDIVLVAYGVLGTQRDGGWVDQNSPVLLDEPVLGSMAKKYNRTPALIALRYQLQRGIVVLNTSLKEERIKENMQVFEFQLSSEDMKVLDGLNRNMRYIPAAIFKGHPNWPFLDEY” as the sequence, how does the “soluble on expression in E. coli” value read?
Answer: soluble

Question: For “MSLTDVEEQQLTVLKDPNCGCCEKWLQALPDSFSVSVQHPNNLTQRKRDSGISAEVQSCHTAISSNGYVFEGHVPPTLVSHYLAGKKSENGIGLTVPGMPVGSVGMEMGTRFQPYTVYEIKKDGSITPYQQIASLEQQQALSNEGLEGHHHHHH”, which “soluble on expression in E. coli” value is on record?
Answer: soluble

Question: With “MISHLFQTYGRRTVEFVKGNGTKVIDNNGKQYLDFTSGIGVCNLGHCHPTVMKAVQEQLNDIWHISNLFTNSLQEEVASLLTENIALDYVFFCNSGAEANEAALKLARKHTGKSLVVTCEQSFHGRTFGTMSATGQNKVKEGFGPLLPSFLHTPFNDIKALKEVMNEEVAAVMVEVVQGEGGVIPADLSFLKEIETLCKKFGSLFIIDEVQTGIGRTGTLFAYEQMGIDPHIVTTAKALGNGIPVGAMIGRKELGTSFTAGSHGSTFGGNYVAMAAAKEVLQVSKRLSFLKEVQEKGEYVLQKLQEELQHVECIQNIRGKGLMVGIECTHEVASFIEQLEKEGLLVLQAGPNVIRLLPPLIVTNEELEQAVYMIKKVVCTKNVSII” as the sequence, how does the “soluble on expression in E. coli” value read?
Answer: not soluble

Question: With “MPLNHYQQEVGPSLADTSPGKMPDVALLEGRYCSVEHLTVAEHYEDILDFYFTNQILSDWTYMYADPFESEEAVRQCLEDYEQSQNPYFFAIRDKASGKVLGTFSLMAITPKNRSVEMGRVILAPALQKTRAATEAQYLLMKYVFEDLNYRRYEWKCDKSQPPFCQCSHSFRVHL” as the sequence, how does the “soluble on expression in E. coli” value read?
Answer: not soluble

Question: With “MGSDKIHHHHHHVTAPAFLPVILAGGSGERFWPLSRKHRPKQFLTLDETGRSLLQATSDRLGRLSGSPEQVMVVTGTEYRTQVLEQLPDMPIEHLIVEPVARDTAPAVLYAALRVAQENPQAVMGVFPADHRITDAQAFGRVVRRAIEVAEITGGLVTLGVTPTFPATGYGYIQRGEQLLGGELPAFRVSRFTEKPDAETAQLFLADGRYTWNSGMFIWRVQAILAAFEQYQPDMYAQLSAAVRGSPRQVRAVFPELQKISIDYAILEKSDQVVVIPAEFGWDDLGDWNALERLLKGEGQNVAVGRHVGLDTDGAILYTTGGDGLIATIGLEDVVVVRTDEVTLVVRKDRTQDIKKVVQQLKSHPELERFA” as the sequence, how does the “soluble on expression in E. coli” value read?
Answer: not soluble

Question: Which “soluble on expression in E. coli” value does the source give for “MSQRKYFGTDGVRGEVGGPVINAAFALRLGYAAGRVLAREHREHASGRGRNRPQVVIGKDTRISGYMLESALEAGLSAAGIDVLLAGPVPTPAVAYLTRTLRLAAGIVISASHNPYQDNGIKFFSAHGMKLPDDIEAAIEQALDEPLGCVGSEELGRARRMADAQGRYIEFCKSTFPHDLDLNGLKLVVDAAHGAAYNVAPHVFRELGAEVHAIGVSPDGFNINKGVGALHPESLAEEVRARGADLGIALDGDADRLQMVDGTGRIYNGDELLYAIVRERMQRGPVAGVVGTLMTNYGLERQLQQIGVGFERANVGDRYVLEQMQARGWLYGGESSGHLLCLDCHTTGDGTIAALQVLTALRRADATLAEWVADLRMYPQKMINVPLAPGLDWKTHDGLARARGAVEAELAGRGRVLIRASGTEPKLRLMVEAEDEALAQASAQKLADSLGA” here?
Answer: not soluble
